From paper PMC9719539 (Nature Communications, 2022)
Non-standard residues stand in square brackets, D forms with d.

B1: cRGDfK peptide, cyclo[Arg-Gly-Asp-D-Phe-Lys] (peptide)
peptide: cyclo(RGD[dF]K)
notes: cyclic pentapeptide, a cilengitide analog; f = D-Phe; Unlabelled soluble peptide used as titrator
B2: Biogen-αVβ1.5 Fab (Fab, V domains shown)
VH: EVQLVESGGGVVQPGRSLRLSCAASGFTFKYYGMHWVRQAPGKGLEWVASIWYDGSNKKYADSVKGRFTISRDNSKNTLYLQMNSLRAEDTAVYYCARGGPTRGDGTRVYYYGMDVWGQGTTVTVSS
VL: EIVMTQSPATLSVSPGERATLSCRASQSVSSNLAWYQQKPGQAPRLLIYSASTRATGIPARFSGSGSGTEFTLTISSLQSEDFAVYYCQQYYHHPFTFGGGTKVEIK
notes: heavy chain before CDR3; heavy-chain CDR3 (RGD motif highlighted); heavy chain after CDR3 up to the papain cut (IgG1); light chain; Expressed as IgG1 and cut to Fab with papain; also called Exemplary Antibody 5; anti-αVβ1; source: Expi293F, recombinantly expressed as IgG1; Fab generated with papain, purified (Hi-Trap Q)

Tests used:
[1] = molecular target: T1, integrin α5β1 ectodomain (soluble) (human, UniProt P08648 42-995; P05556 21-728); assay: fluorescence polarisation; competition with 10 nM FITC-cyclic-… binding to soluble integrin ectodomains in solution (50 nM α5β1, 200 nM αVβ1, 20 nM αVβ3, 20 nM αVβ5); global three-parameter dose-response fit; settings: both partners purified
T1 construct: human integrin α5 ectodomain; N-terminal secretion peptide and HRV3C digestion site in the construct; human integrin β1 ectodomain; source: Expi293F, transiently transfected, purified from culture supernatant (Ni-NTA, size-exclusion chromatography)
T1 sequence (P08648 42-995, chain 1 of 2): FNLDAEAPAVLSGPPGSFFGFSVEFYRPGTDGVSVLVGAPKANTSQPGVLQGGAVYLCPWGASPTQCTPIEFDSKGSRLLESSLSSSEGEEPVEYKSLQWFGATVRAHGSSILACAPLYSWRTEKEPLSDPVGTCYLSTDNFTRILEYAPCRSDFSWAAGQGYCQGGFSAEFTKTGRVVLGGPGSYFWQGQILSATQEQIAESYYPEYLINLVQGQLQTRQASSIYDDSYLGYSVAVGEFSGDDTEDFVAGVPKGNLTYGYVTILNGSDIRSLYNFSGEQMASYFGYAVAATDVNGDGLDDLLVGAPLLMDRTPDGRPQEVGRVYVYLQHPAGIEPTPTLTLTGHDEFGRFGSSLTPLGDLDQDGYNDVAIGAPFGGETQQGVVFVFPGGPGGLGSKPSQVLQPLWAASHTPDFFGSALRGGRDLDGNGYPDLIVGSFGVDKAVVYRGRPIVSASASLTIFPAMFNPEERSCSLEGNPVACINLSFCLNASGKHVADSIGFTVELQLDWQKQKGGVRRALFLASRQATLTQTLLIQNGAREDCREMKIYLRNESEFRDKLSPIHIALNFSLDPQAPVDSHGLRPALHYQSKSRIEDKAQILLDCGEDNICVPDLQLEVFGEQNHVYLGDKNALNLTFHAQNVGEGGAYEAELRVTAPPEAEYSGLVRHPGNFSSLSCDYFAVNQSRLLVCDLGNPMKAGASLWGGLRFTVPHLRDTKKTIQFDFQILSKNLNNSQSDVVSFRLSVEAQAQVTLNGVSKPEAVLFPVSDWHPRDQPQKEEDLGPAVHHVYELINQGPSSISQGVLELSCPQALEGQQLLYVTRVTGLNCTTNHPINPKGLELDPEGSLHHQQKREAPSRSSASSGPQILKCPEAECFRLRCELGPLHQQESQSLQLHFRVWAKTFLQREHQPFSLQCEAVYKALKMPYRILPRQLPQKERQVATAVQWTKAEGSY
T1 sequence (P05556 21-728, chain 2 of 2): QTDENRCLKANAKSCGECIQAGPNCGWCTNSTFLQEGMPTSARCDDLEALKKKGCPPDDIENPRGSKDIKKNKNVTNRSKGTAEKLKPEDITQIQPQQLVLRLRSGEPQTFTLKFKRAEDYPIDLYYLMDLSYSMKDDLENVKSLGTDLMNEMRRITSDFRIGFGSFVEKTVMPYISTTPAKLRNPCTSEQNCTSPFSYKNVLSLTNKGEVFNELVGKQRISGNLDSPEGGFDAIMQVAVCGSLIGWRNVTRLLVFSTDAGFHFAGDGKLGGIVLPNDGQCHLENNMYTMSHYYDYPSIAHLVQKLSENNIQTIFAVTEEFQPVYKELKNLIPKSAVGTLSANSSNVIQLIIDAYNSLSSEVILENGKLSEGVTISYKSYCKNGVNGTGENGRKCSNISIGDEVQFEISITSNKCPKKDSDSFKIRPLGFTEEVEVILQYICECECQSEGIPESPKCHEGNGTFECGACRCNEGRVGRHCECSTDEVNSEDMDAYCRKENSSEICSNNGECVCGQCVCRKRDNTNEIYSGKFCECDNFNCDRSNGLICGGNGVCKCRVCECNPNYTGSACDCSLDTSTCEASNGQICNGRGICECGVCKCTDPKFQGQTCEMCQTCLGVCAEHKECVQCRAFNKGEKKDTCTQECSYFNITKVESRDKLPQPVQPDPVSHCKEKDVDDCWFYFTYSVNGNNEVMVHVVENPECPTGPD

[2] = molecular target: T2, integrin α5β1, intact, on wild type K562 cells (human (endogenous in K562), UniProt P08648 42-1049; P05556 21-798); assay: flow cytometry on cells; intact integrins on K562 cells in L15 medium with 1% BSA and 1 mM Mn2+, no washing; titrator's binding read as enhancement of binding of AF647-9EG7 Fab (10 nM); EC50 of a three-parameter dose-response fit taken as Kd; settings: one partner purified
T2 construct: integrin α5 subunit, natively expressed on K562 cells; integrin β1 subunit, natively expressed on K562 cells; also called K562 WT (α5β1); K562 WT; source: endogenous, on wild type K562 cells
T2 sequence (P08648 42-1049, chain 1 of 2): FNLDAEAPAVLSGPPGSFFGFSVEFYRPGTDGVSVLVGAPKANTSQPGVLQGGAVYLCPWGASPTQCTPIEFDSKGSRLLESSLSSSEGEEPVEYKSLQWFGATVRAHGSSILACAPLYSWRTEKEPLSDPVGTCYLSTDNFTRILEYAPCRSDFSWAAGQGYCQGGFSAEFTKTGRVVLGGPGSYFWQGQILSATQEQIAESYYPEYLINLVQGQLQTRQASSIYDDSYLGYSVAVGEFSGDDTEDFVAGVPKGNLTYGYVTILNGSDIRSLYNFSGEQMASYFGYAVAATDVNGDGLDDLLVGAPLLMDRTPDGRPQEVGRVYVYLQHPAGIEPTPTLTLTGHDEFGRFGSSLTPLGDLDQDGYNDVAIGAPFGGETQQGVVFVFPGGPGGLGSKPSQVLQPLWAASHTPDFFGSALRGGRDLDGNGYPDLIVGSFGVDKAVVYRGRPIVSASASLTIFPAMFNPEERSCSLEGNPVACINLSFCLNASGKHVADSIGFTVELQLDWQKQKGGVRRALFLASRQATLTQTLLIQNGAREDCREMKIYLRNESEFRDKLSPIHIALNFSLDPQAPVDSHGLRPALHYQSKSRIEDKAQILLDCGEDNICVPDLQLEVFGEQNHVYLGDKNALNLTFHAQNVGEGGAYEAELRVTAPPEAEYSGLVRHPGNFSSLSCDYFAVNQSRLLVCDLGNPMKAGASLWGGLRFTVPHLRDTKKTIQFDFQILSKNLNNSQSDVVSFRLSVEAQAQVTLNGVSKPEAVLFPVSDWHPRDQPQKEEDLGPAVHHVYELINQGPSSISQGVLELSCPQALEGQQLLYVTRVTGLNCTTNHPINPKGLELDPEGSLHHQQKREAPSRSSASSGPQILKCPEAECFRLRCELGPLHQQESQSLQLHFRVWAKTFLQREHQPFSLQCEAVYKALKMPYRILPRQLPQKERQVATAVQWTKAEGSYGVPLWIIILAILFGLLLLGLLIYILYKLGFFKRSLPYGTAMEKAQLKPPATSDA
T2 sequence (P05556 21-798, chain 2 of 2): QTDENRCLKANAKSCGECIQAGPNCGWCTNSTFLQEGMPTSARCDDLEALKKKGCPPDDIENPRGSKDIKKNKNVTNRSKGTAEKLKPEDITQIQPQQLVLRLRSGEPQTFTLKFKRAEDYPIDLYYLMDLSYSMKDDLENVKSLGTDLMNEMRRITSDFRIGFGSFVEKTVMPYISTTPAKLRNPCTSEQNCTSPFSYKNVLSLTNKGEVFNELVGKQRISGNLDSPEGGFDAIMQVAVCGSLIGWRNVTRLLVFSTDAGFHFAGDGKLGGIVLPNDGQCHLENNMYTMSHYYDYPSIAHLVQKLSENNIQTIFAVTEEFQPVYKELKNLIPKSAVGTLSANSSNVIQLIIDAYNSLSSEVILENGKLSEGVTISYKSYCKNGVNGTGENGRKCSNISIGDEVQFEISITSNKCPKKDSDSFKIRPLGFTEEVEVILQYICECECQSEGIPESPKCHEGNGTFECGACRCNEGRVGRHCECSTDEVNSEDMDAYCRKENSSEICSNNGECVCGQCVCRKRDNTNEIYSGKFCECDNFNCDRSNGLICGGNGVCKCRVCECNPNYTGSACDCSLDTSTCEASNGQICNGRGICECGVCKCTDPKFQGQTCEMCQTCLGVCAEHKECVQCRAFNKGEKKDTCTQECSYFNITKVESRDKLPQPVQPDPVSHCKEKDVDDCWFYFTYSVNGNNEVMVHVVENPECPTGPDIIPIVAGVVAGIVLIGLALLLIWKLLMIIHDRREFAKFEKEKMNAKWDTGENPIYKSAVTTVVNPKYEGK

[3] = molecular target: T2, integrin α5β1, intact, on wild type …; assay: flow cytometry on cells; intact integrins on K562 cells in L15 medium with 1% BSA, without Mn2+, no washing; titrator's binding read as enhancement of binding of fluorescent 9EG7 Fab (10 nM); EC50 of a three-parameter dose-response fit taken as Kd; settings: one partner purified
[4] = molecular target: T3, integrin α5β1 ectodomain (soluble) (human, UniProt P08648;P05556); assay: fluorescence polarisation; competition with 10 nM FITC-cyclic-… binding to soluble integrin ectodomains in solution (50 nM α5β1, 200 nM αVβ1, 20 nM αVβ3, 20 nM αVβ5); global three-parameter dose-response fit; settings: both partners purified
T3 construct: human integrin α5 ectodomain; N-terminal secretion peptide and HRV3C digestion site in the construct; human integrin β1 ectodomain; source: Expi293F, transiently transfected, purified from culture supernatant (Ni-NTA, size-exclusion chromatography)
T3 sequence (P08648 42-995, chain 1 of 2): as the sequence (P08648 42-995, chain 1 of 2) above
T3 sequence (P05556 21-728, chain 2 of 2): as the sequence (P05556 21-728, chain 2 of 2) above

[5] = molecular target: T4, integrin αVβ3 ectodomain (soluble) (human, UniProt P06756;P05106); assay: as above; settings: both partners purified
T4 construct: human integrin αV ectodomain; N-terminal secretion peptide and HRV3C digestion site in the construct; human integrin β3 ectodomain; source: Expi293F, transiently transfected, purified from culture supernatant (Ni-NTA, size-exclusion chromatography)

[6] = molecular target: T5, integrin α5β1, intact, on wild type K562 cells (human (endogenous in K562), UniProt P08648;P05556); assay: flow cytometry on cells; intact integrins on K562 cells in L15 medium with 1% BSA and 1 mM Mn2+, no washing; titrator's binding read as enhancement of binding of AF647-9EG7 Fab (10 nM); EC50 of a three-parameter dose-response fit taken as Kd; settings: one partner purified
T5 construct: integrin α5 subunit, natively expressed on K562 cells; integrin β1 subunit, natively expressed on K562 cells; also called K562 WT (α5β1); K562 WT; source: endogenous, on wild type K562 cells
T5 sequence (P08648 42-1049, chain 1 of 2): as the sequence (P08648 42-1049, chain 1 of 2) above
T5 sequence (P05556 21-798, chain 2 of 2): as the sequence (P05556 21-798, chain 2 of 2) above

[7] = molecular target: T6, integrin αVβ1, intact, on K562 αVβ1 stable transfectants (human, UniProt P06756;P05556); assay: as above; settings: one partner purified
T6 construct: integrin αV subunit; integrin β1 subunit; the cells also express native α5β1, whose share the legend calls negligible
T6 sequence (P06756 31-1048, chain 1 of 2): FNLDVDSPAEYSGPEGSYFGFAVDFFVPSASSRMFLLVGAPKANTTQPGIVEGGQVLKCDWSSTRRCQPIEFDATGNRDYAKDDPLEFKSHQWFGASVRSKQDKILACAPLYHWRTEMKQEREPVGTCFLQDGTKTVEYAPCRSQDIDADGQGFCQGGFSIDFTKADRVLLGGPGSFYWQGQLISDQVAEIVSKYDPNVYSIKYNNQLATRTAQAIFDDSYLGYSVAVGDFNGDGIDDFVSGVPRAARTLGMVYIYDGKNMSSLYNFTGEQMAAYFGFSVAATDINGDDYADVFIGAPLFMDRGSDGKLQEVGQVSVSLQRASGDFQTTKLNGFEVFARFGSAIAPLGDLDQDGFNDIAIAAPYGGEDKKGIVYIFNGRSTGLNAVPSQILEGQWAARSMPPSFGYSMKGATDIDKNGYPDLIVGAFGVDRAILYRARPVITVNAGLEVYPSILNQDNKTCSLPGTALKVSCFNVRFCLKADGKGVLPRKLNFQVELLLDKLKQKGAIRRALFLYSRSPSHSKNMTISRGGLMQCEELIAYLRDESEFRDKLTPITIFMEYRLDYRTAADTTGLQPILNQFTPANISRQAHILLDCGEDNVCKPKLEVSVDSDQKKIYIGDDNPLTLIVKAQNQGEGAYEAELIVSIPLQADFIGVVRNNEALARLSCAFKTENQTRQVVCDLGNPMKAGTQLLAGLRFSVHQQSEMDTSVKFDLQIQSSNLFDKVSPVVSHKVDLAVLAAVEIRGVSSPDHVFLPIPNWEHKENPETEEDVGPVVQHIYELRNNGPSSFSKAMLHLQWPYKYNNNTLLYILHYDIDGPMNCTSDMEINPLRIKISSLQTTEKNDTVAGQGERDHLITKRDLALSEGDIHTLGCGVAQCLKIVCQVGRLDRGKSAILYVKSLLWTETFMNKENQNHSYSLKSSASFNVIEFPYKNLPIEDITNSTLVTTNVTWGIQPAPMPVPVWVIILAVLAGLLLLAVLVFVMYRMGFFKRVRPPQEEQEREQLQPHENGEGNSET
T6 sequence (P05556 21-798, chain 2 of 2): as the sequence (P05556 21-798, chain 2 of 2) above

[8] = molecular target: T5, integrin α5β1, intact, on wild type …; assay: flow cytometry on cells; intact integrins on K562 cells in L15 medium with 1% BSA, without Mn2+, no washing; titrator's binding read as enhancement of binding of fluorescent 9EG7 Fab (10 nM); EC50 of a three-parameter dose-response fit taken as Kd; settings: one partner purified
[9] = molecular target: T6, integrin αVβ1, intact, on K562 αVβ1 …; assay: as above; settings: one partner purified

| Binder | IC50 [1] | Kd [2] | Kd [3] | IC50 [4] | IC50 [5] | Kd [6] | Kd [7] | Kd [8] | Kd [9] |
| --- | --- | --- | --- | --- | --- | --- | --- | --- | --- |
| B1 | 1.2 ± 0.5 µM | 11 µM | 610 µM | – | – | – | – | – | – |
| B2 | – | – | – | 0.2 ± 0.1 µM | 21 ± 3 µM | 4.3 µM | 0.0236 µM | 19 µM | 0.117 µM |
